# Data from article PMC4022456, “Phosphorylation of a WRKY Transcription Factor by MAPKs Is Required for Pollen Development and Function in Arabidopsis”.
# Biological target: WRKY34 (WT) (Arabidopsis thaliana, UniProt O65590 1-568)
# Assay: EMSA; competed by 250-fold unlabeled W-box tested; 20 mM HEPES pH 7.9, 50 mM KCl, 0.5 mM DTT, 0.1 mM EDTA, 0.1 ug/uL herring sperm DNA, room temperature 30 min; 1 ug protein, 2 pmol probe; 5% native PAGE, 0.5x TBE
# Conditions: protein: recombinant; label: 32P 5' end; blunt
# Sequence of WRKY34 (WT) (O65590 whole entry): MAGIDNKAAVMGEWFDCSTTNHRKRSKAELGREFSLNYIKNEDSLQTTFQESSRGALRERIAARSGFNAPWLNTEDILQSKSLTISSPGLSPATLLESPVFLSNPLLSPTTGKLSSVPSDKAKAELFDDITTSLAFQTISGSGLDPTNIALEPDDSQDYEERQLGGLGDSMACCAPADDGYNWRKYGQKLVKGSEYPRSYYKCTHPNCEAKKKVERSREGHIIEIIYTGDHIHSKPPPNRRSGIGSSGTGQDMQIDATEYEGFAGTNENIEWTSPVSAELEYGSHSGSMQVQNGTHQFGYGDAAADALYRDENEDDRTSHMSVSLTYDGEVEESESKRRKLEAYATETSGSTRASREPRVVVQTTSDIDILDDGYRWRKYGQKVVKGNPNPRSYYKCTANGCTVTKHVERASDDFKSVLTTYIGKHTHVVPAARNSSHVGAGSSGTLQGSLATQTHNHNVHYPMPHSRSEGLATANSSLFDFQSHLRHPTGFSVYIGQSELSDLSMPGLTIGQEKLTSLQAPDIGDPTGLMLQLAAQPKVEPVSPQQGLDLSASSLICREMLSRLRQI
binder,measurement,value
W-box probe (three W boxes) (dsDNA) DNA 1: CGTTGACCGTTGACCGAGTTGACTTTTTA DNA 2: TAAAAAGTCAACTCGGTCAACGGTCAACG,binding result,binds
